Data taken from patent US20230357411A1.
Substitutions are numbered along the chain they refer to. Values belong to the binder of their own block, whether it stands above or below them.

Biological target: TrKA (ELISA antigen, target Human-TrKA) (human) (UniProt P04629)
Assay: ELISA, antibody 0 to 20 µg/mL, plateau

TrKA (ELISA antigen, target Human-TrKA) (human), sequence (P04629 33-423 limits assumed): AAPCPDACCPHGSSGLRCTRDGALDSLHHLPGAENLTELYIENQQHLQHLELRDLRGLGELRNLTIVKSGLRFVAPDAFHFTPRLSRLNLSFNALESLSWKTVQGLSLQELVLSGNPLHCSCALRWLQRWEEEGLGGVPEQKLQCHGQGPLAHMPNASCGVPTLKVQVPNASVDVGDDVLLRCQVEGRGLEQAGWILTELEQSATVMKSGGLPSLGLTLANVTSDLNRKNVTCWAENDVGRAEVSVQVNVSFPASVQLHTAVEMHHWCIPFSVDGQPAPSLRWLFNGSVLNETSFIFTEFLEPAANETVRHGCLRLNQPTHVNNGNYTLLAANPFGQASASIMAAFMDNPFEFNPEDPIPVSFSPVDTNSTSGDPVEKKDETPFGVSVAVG

B3: humanized anti-TrkA monoclonal antibody H1L1-IgG4 (antibody)
heavy: EVQLLESGGGLVQPGGSLKLSCKASGYAFTNYWLGWMKQRPGHGLEWIGDFYPRTGNTFYNENFKGKVTLTADKSSNTAYMQLSSLTSEDSAVYLCARAGTGFDYWGQGTTLTVSSASTKGPSVFPLAPCSRSTSESTAALGCLVKDYFPEPVTVSWNSGALTSGVHTFPAVLQSSGLYSLSSVVTVPSSSLGTKTYTCNVDHKPSNTKVDKRVESKYGPPCPPCPAPEAAGGPSVFLFPPKPKDTLMISRTPEVTCVVVDVSQEDPEVQFNWYVDGVEVHNAKTKPREEQFNSTYRVVSVLTVLHQDWLNGKEYKCKVSNKGLPSSIEKTISKAKGQPREPQVYTLPPSQEEMTKNQVSLTCLVKGFYPSDIAVEWESNGQPENNYKTTPPVLDSDGSFFLYSKLTVDKSRWQEGNVFSCSVMHEALHNHYTQKSLSLSLG
light: EIVMTQSPATLSLSVGERVTLSCKASENVGGYVSWYQQKPDQSPKLLIYGASSRHTGVPDRFTGSGSETDFTLTISSVQAEDLAAYHCGQNYIYPFTFGGGTKLEIKRTVAAPSVFIFPPSDEQLKSGTASVVCLLNNFYPREAKVQWKVDNALQSGNSQESVTEQDSKDSTYSLSSTLTLSKADYEKHKVYACEVTHQGLSSPVTKSFNRGEC
- OD450: 3

B4: human-mouse chimeric anti-TrkA monoclonal antibody 23E12 (H0L0-IgG4) (antibody)
heavy: B3 heavy with E1Q, L5Q, E6Q, G9A, G10E, Q13R, G16T, L18V, L20I
light: B3 light with E1S, A9K, T10S, L11M, L13M
- OD450: 3

More lines, now with the values ahead:

- OD450: 3
B1: humanized anti-TrkA monoclonal antibody H3L1-IgG4 (antibody, V domains shown)
VH: EVQLLESGGGLVQPGGSLKLSCKASGYAFTNYWLGWMKQRPGHGLEWIGDFYPRTGNTFYNENFKGQVTMSVDKSITTAYLQWNSLKASDTAMYYCARAGTGFDYWGQGTTLTVSS
VL: EIVMTQSPATLSLSVGERVTLSCKASENVGGYVSWYQQKPDQSPKLLIYGASSRHTGVPDRFTGSGSETDFTLTISSVQAEDLAAYHCGQNYIYPFTFGGGTKLEIKR

- OD450: 3
B2: humanized anti-TrkA monoclonal antibody H3L2-IgG4 (antibody, V domains shown)
VH: B1 VH
VL: B1 VL with H55A
